Test results published in PMC6884004.
Each block holds one molecule with its values, some of them ahead of it.

Tests used:
[1] = target: synthetic MTED peptide (MT elimination domain of Drosophila Efa6) (Drosophila melanogaster); assay: pull-down; MTED or scrambled peptide coupled via the N-terminal amine to cyanogen bromide-activated Sepharose beads (5 ng peptide/μl beads); 15 μM porcine brain tubulin (un-polymerised GDP-tubulin); BRB80 with 0.2% Tween 20, 30 min, 20°C; five washes; SDS-PAGE band intensity compared with uncoated beads
[2] = target: Full length human MCAK (mitotic centromere-associated kinesin) (human) (UniProt Q99661); assay: pull-down; full length human MCAK coupled (1 µg/µl beads) to cyanogen bromide-activated Sepharose beads via lysines or the N-terminal amine; beads pre-incubated with 5 mM AMPPNP or ADP for 30 min at 20°C; 15 μM porcine brain tubulin, 30 min, 20°C; nucleotide kept in the washing buffer; SDS-PAGE band intensity compared with uncoated beads
[3] = target: porcine brain tubulin (un-polymerised GDP-tubulin) (porcine) (UniProt P02550)
[4] = target: GMPCPP-stabilised, rhodamine-labeled microtubules grown from porcine brain tubulin (porcine) (UniProt P02550); assay: TIRF microscopy of GFP-tagged protein on surface-adhered microtubules; GMPCPP-stabilised rhodamine-labeled MTs adhered to flow chambers; 20 nM Efa6-ΔCterm::GFP in BRB20 pH 6.9, 75 mM KCl, 0.05% Tween20, 0.1 mg/ml BSA, or 20 nM MCAK::GFP in the same buffer plus 1 mM ATP and 1 mM taxol; mean GFP intensity on individual MTs

fold tubulin pulled down against beads coated with scrambled peptide [1]: 5 fold
fold tubulin pulled down against uncoated beads [1]: 3 fold
fold tubulin pulled down against uncoated beads (with AMPPNP or ADP) [2]: 1.5 fold
Molecule: porcine brain tubulin (un-polymerised GDP-tubulin) (from UniProt P02550 1-451; P02554 1-445) (complex)

fold decrease in amount of MT polymer in the MT growth assay (30 μM tubulin with 30 μM MTED peptide, against no peptide) [3]: 10 fold
Molecule: APRFEAYMMTGDLILNLSRT [synthetic MTED peptide (MT elimination domain of Drosophila Efa6)]

fold of molecules on MTs against Efa6-ΔCterm::GFP at the same concentration [4]: > 2 fold
B1: MCAK::GFP (His6-MCAK::EGFP-StrepII) (enzyme)
chain: MAMDSSLQARLFPGLAIKIQRSNGLIHSANVRTVNLEKSCVSVEWAEGGATKGKEIDFDDVAAINPELLQLLPLHPKDNLPLQENVTIQKQKRRSVNSKIPAPKESLRSRSTRMSTVSELRITAQENDMEVELPAAANSRKQFSVPPAPTRPSCPAVAEIPLRMVSEEMEEQVHSIRGSSSANPVNSVRRKSCLVKEVEKMKNKREEKKAQNSEMRMKRAQEYDSSFPNWEFARMIKEFRATLECHPLTMTDPIEEHRICVCVRKRPLNKQELAKKEIDVISIPSKCLLLVHEPKLKVDLTKYLENQAFCFDFAFDETASNEVVYRFTARPLVQTIFEGGKATCFAYGQTGSGKTHTMGGDLSGKAQNASKGIYAMASRDVFLLKNQPCYRKLGLEVYVTFFEIYNGKLFDLLNKKAKLRVLEDGKQQVQVVGLQEHLVNSADDVIKMIDMGSACRTSGQTFANSNSSRSHACFQIILRAKGRMHGKFSLVDLAGNERGADTSSADRQTRMEGAEINKSLLALKECIRALGQNKAHTPFRESKLTQVLRDSFIGENSRTCMIATISPGISSCEYTLNTLRYADRVKELSPHSGPSGEQLIQMETEEMEACSNGALIPGNLSKEEEELSSQMSSFNEAMTQIRELEEKAMEELKEIIQQGPDWLELSEMTEQPDYDLETFVNKAESALAQQAKHFSALRDVIKALRLAMQLEEQASRQISSKKRPQ
